Measurements reported in PMC2896673 (Journal of Biomedicine and Biotechnology, 2010).

Target: human procollagen V proα2(V) chain, produced in HEK-293 cells (human, UniProt P05997 27-1499)
Test: ion-exchange chromatography (DEAE-cellulose) with Western blot of the fractions; supernatant of medium of co-transfected HEK-293 cells (clone C22) after dialysis against 50 mM Tris-HCl pH 8.6; linear 0–0.6 M NaCl gradient; fractions double probed with mAb 18G5 and polyclonal antibodies to collagen V
Conditions: partners not purified

Sequence of human procollagen V proα2(V) chain, produced in HEK-293 cells (P05997 27-1499): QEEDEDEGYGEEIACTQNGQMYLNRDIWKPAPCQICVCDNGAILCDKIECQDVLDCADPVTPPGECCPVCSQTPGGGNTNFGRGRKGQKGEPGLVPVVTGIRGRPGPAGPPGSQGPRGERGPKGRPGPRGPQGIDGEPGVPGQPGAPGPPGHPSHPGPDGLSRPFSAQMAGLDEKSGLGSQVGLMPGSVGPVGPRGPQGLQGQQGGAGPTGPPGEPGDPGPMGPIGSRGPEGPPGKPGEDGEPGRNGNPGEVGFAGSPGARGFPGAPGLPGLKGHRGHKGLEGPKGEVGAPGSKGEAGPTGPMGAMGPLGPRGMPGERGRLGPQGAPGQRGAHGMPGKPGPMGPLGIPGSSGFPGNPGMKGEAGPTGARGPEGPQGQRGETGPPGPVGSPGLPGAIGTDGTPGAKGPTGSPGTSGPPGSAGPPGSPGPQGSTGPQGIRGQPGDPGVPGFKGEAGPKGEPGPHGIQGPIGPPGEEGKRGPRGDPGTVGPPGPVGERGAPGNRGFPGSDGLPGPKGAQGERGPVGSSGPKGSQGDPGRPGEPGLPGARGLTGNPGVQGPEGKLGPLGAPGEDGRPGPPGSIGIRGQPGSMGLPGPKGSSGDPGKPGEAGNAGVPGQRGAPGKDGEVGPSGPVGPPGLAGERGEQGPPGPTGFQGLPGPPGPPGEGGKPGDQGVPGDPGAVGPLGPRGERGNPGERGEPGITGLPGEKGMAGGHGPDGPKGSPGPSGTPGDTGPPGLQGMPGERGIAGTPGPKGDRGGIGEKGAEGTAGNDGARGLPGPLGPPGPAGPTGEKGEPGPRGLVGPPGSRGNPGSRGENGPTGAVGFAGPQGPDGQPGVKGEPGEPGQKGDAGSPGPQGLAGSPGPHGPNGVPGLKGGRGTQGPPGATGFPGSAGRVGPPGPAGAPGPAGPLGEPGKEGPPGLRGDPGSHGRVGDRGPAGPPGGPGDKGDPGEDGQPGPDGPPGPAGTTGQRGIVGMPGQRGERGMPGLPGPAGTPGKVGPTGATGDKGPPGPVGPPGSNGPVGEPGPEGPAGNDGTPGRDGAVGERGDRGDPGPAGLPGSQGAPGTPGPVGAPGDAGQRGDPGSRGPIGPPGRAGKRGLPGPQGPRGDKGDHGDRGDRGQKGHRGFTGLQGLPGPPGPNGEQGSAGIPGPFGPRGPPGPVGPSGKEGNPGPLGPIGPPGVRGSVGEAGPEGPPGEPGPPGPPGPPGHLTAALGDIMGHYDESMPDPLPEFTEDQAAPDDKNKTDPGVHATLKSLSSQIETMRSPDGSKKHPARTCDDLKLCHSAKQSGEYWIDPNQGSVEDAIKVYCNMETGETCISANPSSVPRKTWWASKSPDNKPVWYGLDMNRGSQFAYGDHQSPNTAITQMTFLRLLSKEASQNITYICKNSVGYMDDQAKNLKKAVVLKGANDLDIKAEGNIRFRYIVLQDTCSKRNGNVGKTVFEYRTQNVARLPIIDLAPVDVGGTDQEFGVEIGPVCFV

B1: human procollagen V proα1(V) chain, produced in HEK-293 cells (natural protein, UniProt P20908 38-1838, looked up)
chain: QPADLLKVLDFHNLPDGITKTTGFCATRRSSKGPDVAYRVTKDAQLSAPTKQLYPASAFPEDFSILTTVKAKKGSQAFLVSIYNEQGIQQIGLELGRSPVFLYEDHTGKPGPEDYPLFRGINLSDGKWHRIALSVHKKNVTLILDCKKKTTKFLDRSDHPMIDINGIIVFGTRILDEEVFEGDIQQLLFVSDHRAAYDYCEHYSPDCDTAVPDTPQSQDPNPDEYYTEGDGEGETYYYEYPYYEDPEDLGKEPTPSKKPVEAAKETTEVPEELTPTPTEAAPMPETSEGAGKEEDVGIGDYDYVPSEDYYTPSPYDDLTYGEGEENPDQPTDPGAGAEIPTSTADTSNSSNPAPPPGEGADDLEGEFTEETIRNLDENYYDPYYDPTSSPSEIGPGMPANQDTIYEGIGGPRGEKGQKGEPAIIEPGMLIEGPPGPEGPAGLPGPPGTMGPTGQVGDPGERGPPGRPGLPGADGLPGPPGTMLMLPFRFGGGGDAGSKGPMVSAQESQAQAILQQARLALRGPAGPMGLTGRPGPVGPPGSGGLKGEPGDVGPQGPRGVQGPPGPAGKPGRRGRAGSDGARGMPGQTGPKGDRGFDGLAGLPGEKGHRGDPGPSGPPGPPGDDGERGDDGEVGPRGLPGEPGPRGLLGPKGPPGPPGPPGVTGMDGQPGPKGNVGPQGEPGPPGQQGNPGAQGLPGPQGAIGPPGEKGPLGKPGLPGMPGADGPPGHPGKEGPPGEKGGQGPPGPQGPIGYPGPRGVKGADGIRGLKGTKGEKGEDGFPGFKGDMGIKGDRGEIGPPGPRGEDGPEGPKGRGGPNGDPGPLGPPGEKGKLGVPGLPGYPGRQGPKGSIGFPGFPGANGEKGGRGTPGKPGPRGQRGPTGPRGERGPRGITGKPGPKGNSGGDGPAGPPGERGPNGPQGPTGFPGPKGPPGPPGKDGLPGHPGQRGETGFQGKTGPPGPPGVVGPQGPTGETGPMGERGHPGPPGPPGEQGLPGLAGKEGTKGDPGPAGLPGKDGPPGLRGFPGDRGLPGPVGALGLKGNEGPPGPPGPAGSPGERGPAGAAGPIGIPGRPGPQGPPGPAGEKGAPGEKGPQGPAGRDGLQGPVGLPGPAGPVGPPGEDGDKGEIGEPGQKGSKGDKGEQGPPGPTGPQGPIGQPGPSGADGEPGPRGQQGLFGQKGDEGPRGFPGPPGPVGLQGLPGPPGEKGETGDVGQMGPPGPPGPRGPSGAPGADGPQGPPGGIGNPGAVGEKGEPGEAGEPGLPGEGGPPGPKGERGEKGESGPSGAAGPPGPKGPPGDDGPKGSPGPVGFPGDPGPPGEPGPAGQDGPPGDKGDDGEPGQTGSPGPTGEPGPSGPPGKRGPPGPAGPEGRQGEKGAKGEAGLEGPPGKTGPIGPQGAPGKPGPDGLRGIPGPVGEQGLPGSPGPDGPPGPMGPPGLPGLKGDSGPKGEKGHPGLIGLIGPPGEQGEKGDRGLPGPQGSSGPKGEQGITGPSGPIGPPGPPGLPGPPGPKGAKGSSGPTGPKGEAGHPGPPGPPGPPGEVIQPLPIQASRTRRNIDASQLLDDGNGENYVDYADGMEEIFGSLNSLKLEIEQMKRPLGTQQNPARTCKDLQLCHPDFPDGEYWVDPNQGCSRDSFKVYCNFTAGGSTCVFPDKKSEGARITSWPKENPGSWFSEFKRGKLLSYVDAEGNPVGVVQMTFLRLLSASAHQNVTYHCYQSVAWQDAATGSYDKALRFLGSNDEEMSYDNNPYIRALVDGCATKKGYQKTVLEIDTPKVEQVPIVDIMFNDFGEASQKFGFEVGPACFMG
  stoichiometry N: ~2
